Test results as given in patent publication US12427210B2, “Compounds comprising a fibroblast activation protein ligand and use thereof” (priority 2019, dated 2025).

Key:
Settings in all cases: remark: other sources report otherwise
[1] = biological target: 5-HT1B (h) (human), P28222; experiment: radioligand displacement, compound at 10 µM
[2] = biological target: 5-HT2A (h) (human), P28223; experiment: radioligand displacement, compound at 10 µM
A2A (h) (human), P29274 = biological target: T1, A2A (h) (human), P29274; experiment: radioligand displacement, compound at 10 µM
T1 chain: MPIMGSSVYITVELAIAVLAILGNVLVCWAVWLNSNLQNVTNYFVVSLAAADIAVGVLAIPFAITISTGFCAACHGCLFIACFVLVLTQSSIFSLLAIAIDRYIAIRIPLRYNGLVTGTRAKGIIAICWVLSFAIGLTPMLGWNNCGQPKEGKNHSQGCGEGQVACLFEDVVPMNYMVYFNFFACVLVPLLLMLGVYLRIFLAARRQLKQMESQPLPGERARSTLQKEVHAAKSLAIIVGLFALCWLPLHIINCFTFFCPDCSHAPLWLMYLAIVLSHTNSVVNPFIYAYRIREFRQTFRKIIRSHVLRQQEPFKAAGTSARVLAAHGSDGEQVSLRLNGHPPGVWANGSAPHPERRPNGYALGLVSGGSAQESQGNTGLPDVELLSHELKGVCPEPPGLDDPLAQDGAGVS

CB1 (h) (human), P21554 = biological target: T2, CB1 (h) (human), P21554; experiment: radioligand displacement, compound at 10 µM
T2 chain: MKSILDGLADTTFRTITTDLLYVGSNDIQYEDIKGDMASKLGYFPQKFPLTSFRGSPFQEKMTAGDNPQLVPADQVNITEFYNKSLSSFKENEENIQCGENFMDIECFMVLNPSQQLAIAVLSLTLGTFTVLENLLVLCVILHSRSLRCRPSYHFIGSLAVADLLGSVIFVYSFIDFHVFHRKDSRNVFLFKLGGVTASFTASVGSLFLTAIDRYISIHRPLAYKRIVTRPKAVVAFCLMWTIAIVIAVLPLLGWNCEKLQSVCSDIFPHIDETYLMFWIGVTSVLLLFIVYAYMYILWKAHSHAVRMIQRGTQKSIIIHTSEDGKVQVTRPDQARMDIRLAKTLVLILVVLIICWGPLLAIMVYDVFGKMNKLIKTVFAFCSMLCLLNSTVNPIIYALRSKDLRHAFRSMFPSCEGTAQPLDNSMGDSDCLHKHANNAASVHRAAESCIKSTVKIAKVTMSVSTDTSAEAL

H1 (h) (human), P35367 = experiment: radioligand displacement, compound at 10 µM
H1 (h) (human), P35367, sequence (P35367 whole entry): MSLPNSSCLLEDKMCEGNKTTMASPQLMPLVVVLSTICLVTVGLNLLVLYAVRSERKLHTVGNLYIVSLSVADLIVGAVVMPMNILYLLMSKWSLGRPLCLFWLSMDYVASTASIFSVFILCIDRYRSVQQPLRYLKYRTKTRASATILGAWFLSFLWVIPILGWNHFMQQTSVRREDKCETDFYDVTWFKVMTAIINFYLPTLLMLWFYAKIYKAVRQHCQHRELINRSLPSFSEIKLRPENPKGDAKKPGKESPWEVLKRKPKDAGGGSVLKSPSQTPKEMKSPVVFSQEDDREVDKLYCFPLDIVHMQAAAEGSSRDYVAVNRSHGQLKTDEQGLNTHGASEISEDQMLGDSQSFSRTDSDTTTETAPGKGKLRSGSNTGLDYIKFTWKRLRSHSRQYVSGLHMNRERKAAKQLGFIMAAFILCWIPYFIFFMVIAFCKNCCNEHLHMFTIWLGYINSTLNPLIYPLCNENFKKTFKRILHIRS

H2 (h) (human), P25021 = experiment: radioligand displacement, compound at 10 µM
H2 (h) (human), P25021, sequence (P25021 whole entry): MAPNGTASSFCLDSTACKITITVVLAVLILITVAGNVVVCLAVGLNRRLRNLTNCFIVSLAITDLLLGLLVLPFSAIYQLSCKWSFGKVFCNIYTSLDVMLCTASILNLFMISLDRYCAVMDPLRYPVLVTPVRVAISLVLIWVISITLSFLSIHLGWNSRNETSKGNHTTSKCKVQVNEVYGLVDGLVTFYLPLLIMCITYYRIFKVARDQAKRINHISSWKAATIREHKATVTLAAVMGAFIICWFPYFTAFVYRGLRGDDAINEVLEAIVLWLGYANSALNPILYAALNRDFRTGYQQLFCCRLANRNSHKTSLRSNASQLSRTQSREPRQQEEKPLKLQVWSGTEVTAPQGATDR

M2 (h) (human), P08172 = biological target: T3, M2 (h) (human), P08172; experiment: radioligand displacement, compound at 10 µM
T3 chain: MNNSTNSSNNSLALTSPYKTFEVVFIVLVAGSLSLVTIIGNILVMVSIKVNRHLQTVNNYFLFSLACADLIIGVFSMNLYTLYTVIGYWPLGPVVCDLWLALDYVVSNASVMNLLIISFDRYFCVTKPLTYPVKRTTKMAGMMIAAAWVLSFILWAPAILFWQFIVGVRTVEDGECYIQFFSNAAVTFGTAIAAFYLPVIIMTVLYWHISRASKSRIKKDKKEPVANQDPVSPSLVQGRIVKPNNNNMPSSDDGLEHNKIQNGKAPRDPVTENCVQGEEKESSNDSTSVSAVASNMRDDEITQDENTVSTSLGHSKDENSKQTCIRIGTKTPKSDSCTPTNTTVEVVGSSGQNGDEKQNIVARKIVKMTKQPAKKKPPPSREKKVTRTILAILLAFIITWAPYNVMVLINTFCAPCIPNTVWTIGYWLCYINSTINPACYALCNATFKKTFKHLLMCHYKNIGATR

M3 (h) (human), P20309 = experiment: radioligand displacement, compound at 10 µM
[3] = biological target: beta 1 (h) (human), P08588; experiment: radioligand displacement, compound at 10 µM
[4] = biological target: beta 2 (h) (human), P07550; experiment: radioligand displacement, compound at 10 µM
[5] = biological target: kappa (h) (KOP) (human), P41145; experiment: radioligand displacement, compound at 10 µM
kappa (h) (KOP) (human), P41145, sequence (P41145 whole entry): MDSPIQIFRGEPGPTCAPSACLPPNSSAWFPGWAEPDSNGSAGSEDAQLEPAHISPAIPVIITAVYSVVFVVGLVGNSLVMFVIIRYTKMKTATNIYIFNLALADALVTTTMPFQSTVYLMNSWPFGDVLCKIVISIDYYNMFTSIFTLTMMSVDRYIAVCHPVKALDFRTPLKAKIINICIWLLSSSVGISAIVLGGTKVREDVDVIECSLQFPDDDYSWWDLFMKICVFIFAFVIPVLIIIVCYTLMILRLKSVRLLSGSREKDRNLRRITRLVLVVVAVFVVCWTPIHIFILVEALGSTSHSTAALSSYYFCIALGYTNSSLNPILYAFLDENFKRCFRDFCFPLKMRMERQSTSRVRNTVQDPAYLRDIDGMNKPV

[6] = biological target: human fibroblast activation protein (FAP) on human WI-38 fibroblasts (human); experiment: competitive FACS binding on FAP-expressing WI-38 cells against 3 nM Cy5-labeled compound; category A = pIC50 values >8.0

5-HT2A (h) (human), P28223, sequence (P28223 whole entry): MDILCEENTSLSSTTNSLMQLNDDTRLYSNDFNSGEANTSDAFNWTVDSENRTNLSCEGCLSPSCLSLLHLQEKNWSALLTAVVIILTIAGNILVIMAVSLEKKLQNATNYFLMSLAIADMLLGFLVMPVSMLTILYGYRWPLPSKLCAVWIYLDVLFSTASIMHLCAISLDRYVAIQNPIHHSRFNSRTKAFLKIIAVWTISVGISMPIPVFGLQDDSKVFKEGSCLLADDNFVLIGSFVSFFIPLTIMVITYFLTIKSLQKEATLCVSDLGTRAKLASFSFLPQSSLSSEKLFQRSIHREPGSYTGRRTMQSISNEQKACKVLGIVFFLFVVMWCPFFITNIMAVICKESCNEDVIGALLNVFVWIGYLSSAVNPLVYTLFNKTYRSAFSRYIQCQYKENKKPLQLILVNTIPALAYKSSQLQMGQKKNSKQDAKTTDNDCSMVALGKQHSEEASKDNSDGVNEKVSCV

B1: Hex-[Cys(tMeBn(DOTA-PP))-Pro-Pro-Thr-Gln-Phe-Cys]-Asp-NH2 (3BP-3407) (peptide)
peptide: CPPTQFCD
modifications: here or on the partner: N-terminal hexanoyl (Hex); Cys1 and Cys7 cyclised through tMeBn carrying DOTA-PP; C-terminal amide
[1]
  % Inhibition of Specific Binding: -11%
[2]
  % Inhibition of Specific Binding: -2%
A2A (h) (human), P29274
  % Inhibition of Specific Binding: -4%
CB1 (h) (human), P21554
  % Inhibition of Specific Binding: 5%
H1 (h) (human), P35367
  % Inhibition of Specific Binding: 11%
H2 (h) (human), P25021
  % Inhibition of Specific Binding: -5%
M2 (h) (human), P08172
  % Inhibition of Specific Binding: -4%
M3 (h) (human), P20309
  % Inhibition of Specific Binding: 10%
[3]
  % Inhibition of Specific Binding: 4%
[4]
  % Inhibition of Specific Binding: 4%
[5]
  % Inhibition of Specific Binding: 7%

B2: Hex-[Cys(tMeBn(DOTA-AET))-Pro-Pro-Thr-Gln-Phe-Cys]-OH (3BP-3554) (peptide)
peptide: CPPTQFC
modifications: here or on the partner: N-terminal hexanoyl (Hex); Cys1 and Cys7 cyclised through tMeBn carrying DOTA-AET; free C-terminal acid (-OH)
[1]
  % Inhibition of Specific Binding: 8%
[2]
  % Inhibition of Specific Binding: 4%
A2A (h) (human), P29274
  % Inhibition of Specific Binding: -16%
CB1 (h) (human), P21554
  % Inhibition of Specific Binding: -7%
H1 (h) (human), P35367
  % Inhibition of Specific Binding: 4%
H2 (h) (human), P25021
  % Inhibition of Specific Binding: -16%
M2 (h) (human), P08172
  % Inhibition of Specific Binding: 7%
M3 (h) (human), P20309
  % Inhibition of Specific Binding: 1%
[3]
  % Inhibition of Specific Binding: -13%
[4]
  % Inhibition of Specific Binding: 8%
[5]
  % Inhibition of Specific Binding: 10%
[6]
  pIC50 Category (FACS): > 8 pIC50
